In PMC10397247:
Where two headings read alike, the source gives them in different places.

Tests used:
Experiment in all cases: two-hybrid library CCmax;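 note: natural log of median RNA to DNA barcode read ratio; higher means stronger binding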
[1] = target: T1, 4H3378-AA; conditions: mean of both orientations
T1 chain: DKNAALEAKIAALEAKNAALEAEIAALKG

[2] = target: T2, 4H1310-AA
T2 chain: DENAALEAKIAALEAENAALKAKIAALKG

[3] = target: T3, 4H1845-AA; conditions: mean of both orientations
T3 chain: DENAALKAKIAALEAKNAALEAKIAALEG

[4] = target: T4, 4H1513-AA; conditions: mean of both orientations
T4 chain: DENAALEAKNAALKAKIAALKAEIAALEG

[5] = target: T5, 4H2162-AA; conditions: mean of both orientations
T5 chain: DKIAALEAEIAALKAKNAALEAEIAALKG

[6] = target: T6, 4H1629-AA; conditions: mean of both orientations
T6 chain: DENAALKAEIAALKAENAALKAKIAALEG

[7] = target: T7, 4H1153-AA
T7 chain: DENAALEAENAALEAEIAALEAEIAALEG

[8] = target: T8, 4H1478-AA; conditions: mean of both orientations
T8 chain: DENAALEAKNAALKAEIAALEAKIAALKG

[9] = target: T9, 4H3133-AA; conditions: mean of both orientations
T9 chain: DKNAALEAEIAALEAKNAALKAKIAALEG

[10] = target: T10, 4H2277-AA; conditions: mean of both orientations
T10 chain: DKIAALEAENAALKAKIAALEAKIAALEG

[11] = target: T11, 4H454-AA; conditions: mean of both orientations
T11 chain: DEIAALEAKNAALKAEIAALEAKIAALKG

[12] = target: T12, 4H3844-AA; conditions: mean of both orientations
T12 chain: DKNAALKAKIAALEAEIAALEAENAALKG

[13] = target: T13, 4H2343-AA; conditions: mean of both orientations
T13 chain: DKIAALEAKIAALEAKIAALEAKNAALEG

[14] = target: T14, 4H342-AA; conditions: mean of both orientations
T14 chain: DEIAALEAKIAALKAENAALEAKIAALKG

[15] = target: T15, 4H3112-AA; conditions: mean of both orientations
T15 chain: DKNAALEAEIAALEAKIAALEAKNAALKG

[16] = target: T16, 4H2883-AA; conditions: mean of both orientations
T16 chain: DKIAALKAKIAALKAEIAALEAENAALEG

[17] = target: T17, 4H317-AA
T17 chain: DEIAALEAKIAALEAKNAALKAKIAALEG

[18] = target: T18, 4H794-AA; conditions: mean of both orientations
T18 chain: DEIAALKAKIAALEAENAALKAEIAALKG

[19] = target: T19, 4H3627-AA; conditions: mean of both orientations
T19 chain: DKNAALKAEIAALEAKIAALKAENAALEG

[20] = target: T20, 4H3921-AA; conditions: mean of both orientations
T20 chain: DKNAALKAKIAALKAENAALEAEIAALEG

[21] = target: T21, 4H3001-AA; conditions: mean of both orientations
T21 chain: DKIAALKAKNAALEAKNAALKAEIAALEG

[22] = target: T22, 4H2592-AA; conditions: mean of both orientations
T22 chain: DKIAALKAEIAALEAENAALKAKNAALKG

[23] = target: T23, 4H3595-AA
T23 chain: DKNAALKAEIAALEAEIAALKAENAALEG

[24] = target: T24, 4H3414-AA; conditions: mean of both orientations
T24 chain: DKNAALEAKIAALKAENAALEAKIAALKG

[25] = target: T25, 4H376-AA; conditions: mean of both orientations
T25 chain: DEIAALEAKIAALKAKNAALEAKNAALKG

[26] = target: T26, 4H2961-AA; conditions: mean of both orientations
T26 chain: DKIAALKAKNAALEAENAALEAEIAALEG

[27] = target: T27, 4H963-AA; conditions: mean of both orientations
T27 chain: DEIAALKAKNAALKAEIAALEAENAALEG

[28] = target: T28, 4H2699-AA; conditions: mean of both orientations
T28 chain: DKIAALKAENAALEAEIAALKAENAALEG

[29] = target: T29, 4H3969-AA; conditions: mean of both orientations
T29 chain: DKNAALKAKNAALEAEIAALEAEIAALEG

[30] = target: T30, 4H1913-AA; conditions: mean of both orientations
T30 chain: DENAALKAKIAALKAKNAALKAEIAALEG

[31] = target: T31, AP3-AA; conditions: mean of both orientations
T31 chain: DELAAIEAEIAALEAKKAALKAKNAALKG

[32] = target: T32, zCON9_D; conditions: mean of both orientations
T32 chain: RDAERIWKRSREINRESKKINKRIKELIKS

[33] = target: T33, zCON9_B; conditions: mean of both orientations
T33 chain: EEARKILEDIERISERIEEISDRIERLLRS

[34] = target: T34, AP1-AA; conditions: mean of both orientations
T34 chain: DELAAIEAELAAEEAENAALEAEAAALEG

[35] = target: T35, P3-AA; conditions: mean of both orientations
T35 chain: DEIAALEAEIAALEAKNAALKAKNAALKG

[36] = target: T36, P1-AA; conditions: mean of both orientations
T36 chain: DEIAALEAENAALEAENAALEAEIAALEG

[37] = target: T37, P2-AA; conditions: mean of both orientations
T37 chain: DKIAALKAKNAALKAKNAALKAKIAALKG

[38] = target: T38, AP5-AA; conditions: mean of both orientations
T38 chain: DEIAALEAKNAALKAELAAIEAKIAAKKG

[39] = target: T39, P10-AA; conditions: mean of both orientations
T39 chain: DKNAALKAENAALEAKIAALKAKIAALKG

[40] = target: T40, AP2-AA; conditions: mean of both orientations
T40 chain: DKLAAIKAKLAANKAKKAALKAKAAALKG

[41] = target: T41, 4H883-AA
T41 chain: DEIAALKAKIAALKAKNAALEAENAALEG

[42] = target: T42, 4H451-AA
T42 chain: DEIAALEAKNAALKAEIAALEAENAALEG

[43] = target: T43, 4H3905-AA; conditions: mean of both orientations
T43 chain: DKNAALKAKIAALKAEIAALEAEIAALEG

Binder: DENAALEAEIAALKAKNAALEAKIAALKG [4H1142-AA]
- interaction score [1]: -0.868
- interaction score ([2]; mean of both orientations): -1.26
- interaction score [3]: -0.689
- interaction score [4]: -1.67
- interaction score [5]: 0.00334
- interaction score [6]: -1.15
- interaction score ([7]; mean of both orientations): -1.39
- interaction score [8]: -0.804
- interaction score [9]: -0.11

Binder: DKIAALEAEIAALKAKNAALEAKIAALEG [4H2165-AA]
- interaction score [10]: -1.36
- interaction score [11]: -0.571
- interaction score [12]: -1.35
- interaction score [13]: -1.25
- interaction score [14]: 1.73
- interaction score [15]: -0.868
- interaction score [16]: -1.67
- interaction score ([17]; mean of both orientations): 0.575
- interaction score [18]: -1.31
- interaction score [19]: -1.58
- interaction score [20]: -1.58
- interaction score [21]: -1.67
- interaction score [22]: -0.973

Binder: DEIAALEAENAALKAKNAALKAEIAALEG [4H249-AA]
- interaction score ([23]; mean of both orientations): -1.4
- interaction score [24]: 0.535
- interaction score [25]: -1.45
- interaction score [26]: 1.36
- interaction score [27]: -1.65
- interaction score [28]: -1.1
- interaction score [21]: -1.12
- interaction score [22]: -0.437
- interaction score [29]: -1.58

Binder: DENAALEAEIAALEAKIAALEAKNAALKG [4H1064-AA]
- interaction score [30]: -0.972
- interaction score [23]: 0.0501
- interaction score [24]: -0.952
- interaction score [26]: -1.24
- interaction score [28]: -1.48
- interaction score [29]: -1.31

Binder: DKNAALKAEIAALEAENAALEAKIAALKG [4H3606-AA]
- interaction score [11]: 1.23
- interaction score [12]: -1.17
- interaction score [31]: -1.06
- interaction score [32]: -1.76
- interaction score [33]: -0.854
- interaction score [34]: -1.62
- interaction score [35]: -0.421
- interaction score [36]: -1.64
- interaction score [18]: -0.14
- interaction score [19]: -1.29
- interaction score [37]: 0.917
- interaction score [38]: 2.26
- interaction score [39]: 0.12
- interaction score [40]: -1.36

Binder: DENAALEAKIAALEAENAALKAKIAALKG [4H1310-AA]
- interaction score [1]: -0.0826
- interaction score [2]: 1.62
- interaction score [3]: -0.784
- interaction score [4]: -1.48
- interaction score [5]: -0.945
- interaction score [6]: -0.348
- interaction score [8]: -1.2
- interaction score [9]: 0.253

Binder: DEIAALEAENAALEAKIAALKAENAALEG [4H171-AA]
- interaction score [5]: -1.5
- interaction score [39]: -1.48

Binder: DKIAALEAENAALKAEIAALKAKIAALEG [4H2253-AA]
- interaction score [13]: -2.02
- interaction score [21]: -1.42
- interaction score [22]: -1.61

Binder: DENAALEAENAALKAKIAALKAEIAALEG [4H1257-AA]
- interaction score [30]: -0.977
- interaction score ([23]; mean of both orientations): 0.807
- interaction score [41]: -1.67
- interaction score [24]: -1.01
- interaction score [15]: 0.173
- interaction score [3]: -1.49
- interaction score [26]: -1.08
- interaction score [28]: -0.951
- interaction score [29]: 0.285

Binder: DENAALEAKIAALKAKIAALKAEIAALEG [4H1385-AA]
- interaction score [42]: -1.11
- interaction score [5]: -1.63
- interaction score [8]: 0.852
- interaction score [43]: 2.31

Binder: DENAALEAENAALEAEIAALEAEIAALEG [4H1153-AA]
- interaction score [10]: -1.07
- interaction score [11]: 0.894
- interaction score [12]: -0.484
- interaction score [1]: -1.72
- interaction score [14]: -1.39
- interaction score [15]: -2.33
- interaction score ([2]; mean of both orientations): -1.28
- interaction score [16]: -1.14
- interaction score [3]: -1.27
- interaction score [4]: 1.5
- interaction score ([17]; mean of both orientations): -1.45
- interaction score [6]: -1.34
- interaction score [18]: -1.49
- interaction score [19]: -0.179
- interaction score [7]: -1.43
- interaction score [20]: -1.87
- interaction score [9]: -2.15

Binder: DENAALEAKIAALKAKNAALKAEIAALEG [4H1401-AA]
- interaction score [10]: -1.59
- interaction score [11]: -1.2
- interaction score [12]: -0.79
- interaction score [1]: -0.723
- interaction score [31]: -0.918
- interaction score [32]: -1.37
- interaction score [33]: -0.316
- interaction score [14]: 2.15
- interaction score [15]: -1.06
- interaction score [16]: -1.43
- interaction score [3]: -1.13
- interaction score [34]: -1.76
- interaction score [4]: -1.9
- interaction score [17]: -1.49
- interaction score [35]: -1.1
- interaction score [36]: -0.911
- interaction score [6]: -1.08
- interaction score [18]: -1.02
- interaction score [19]: -1.38
- interaction score [37]: -1.76
- interaction score [38]: -0.362
- interaction score [39]: -0.931
- interaction score [9]: -0.677
- interaction score [40]: -1.98

Binder: DENAALKAKIAALEAKNAALEAKIAALEG [4H1845-AA]
- interaction score [1]: -1.04
- interaction score ([41]; mean of both orientations): -1.57
- interaction score [15]: -1.24
- interaction score [9]: -0.676

Binder: DENAALEAKIAALKAEIAALEAKIAALKG [4H1350-AA]
- interaction score ([42]; mean of both orientations): 0.115
- interaction score [43]: 1.9

Binder: DENAALKAEIAALKAENAALKAEIAALKG [4H1626-AA]
- interaction score [25]: -1.87
- interaction score [5]: -1.39
- interaction score [27]: -1.46
- interaction score [21]: -2.01
- interaction score [22]: -1.24
